According to US20210261648A1 (published 2021):

What was measured:
[1] = target: T1, FcγRIa extracellular domain with C-terminal His tag (human, UniProt P12314 16-292); experiment: SPR (Biacore)
T1 construct: Whole entry named; also called FcgRIa; CD64A
T1 sequence (P12314 16-292): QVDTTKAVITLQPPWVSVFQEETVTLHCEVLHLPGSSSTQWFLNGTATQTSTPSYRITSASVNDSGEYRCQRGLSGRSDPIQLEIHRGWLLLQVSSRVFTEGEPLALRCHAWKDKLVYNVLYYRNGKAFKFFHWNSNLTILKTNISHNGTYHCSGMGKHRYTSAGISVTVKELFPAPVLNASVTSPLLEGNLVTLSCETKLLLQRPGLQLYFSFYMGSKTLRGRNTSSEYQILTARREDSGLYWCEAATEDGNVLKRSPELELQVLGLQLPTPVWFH

[2] = target: T2, FcγRIIIa type V extracellular domain with C-terminal His tag (human, UniProt P08637 17-208); experiment: SPR (Biacore)
T2 construct: extracellular domain; Allotype V158 (type V); also called FcgRIIIaV; FcγRIIIaV

[3] = target: T3, FcγRIIa type H extracellular domain with C-terminal His tag (human, UniProt P12318 34-217); experiment: SPR (Biacore)
T3 construct: extracellular domain; also called FcgRIIaH; FcγRIIa H
T3 sequence (looked up): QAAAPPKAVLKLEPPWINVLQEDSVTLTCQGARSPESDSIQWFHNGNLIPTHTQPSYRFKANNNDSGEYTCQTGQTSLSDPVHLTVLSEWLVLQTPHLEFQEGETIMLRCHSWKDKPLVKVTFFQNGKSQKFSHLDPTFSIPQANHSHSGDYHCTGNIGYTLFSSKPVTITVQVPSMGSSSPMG

[4] = target: T4, FcγRIIb extracellular domain with C-terminal His tag (human, UniProt P31994 43-217); experiment: SPR; KD of IL6R-B3/IL6R-L divided by KD of the variant
T4 construct: extracellular domain; For crystallography it was expressed with kifunensine and trimmed with Endo F1; also called FcgRIIb; FcγRIIb extracellular region; not shown: His tag attached to the C terminus
T4 sequence (looked up): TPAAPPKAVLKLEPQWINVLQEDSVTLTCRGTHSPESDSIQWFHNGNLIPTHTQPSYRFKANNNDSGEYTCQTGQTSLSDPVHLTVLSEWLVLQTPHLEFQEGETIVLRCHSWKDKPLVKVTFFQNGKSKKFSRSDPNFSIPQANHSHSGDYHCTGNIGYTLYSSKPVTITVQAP

[5] = target: T5, FcγRIIa type R extracellular domain with C-terminal His tag (human, UniProt P12318 34-217); experiment: as above
T5 chain: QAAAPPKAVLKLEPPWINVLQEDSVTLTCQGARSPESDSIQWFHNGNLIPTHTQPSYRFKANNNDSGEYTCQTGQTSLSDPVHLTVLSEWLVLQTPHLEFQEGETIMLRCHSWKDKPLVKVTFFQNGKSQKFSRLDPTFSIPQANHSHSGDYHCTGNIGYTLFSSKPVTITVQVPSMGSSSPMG

[6] = target: T4, FcγRIIb extracellular domain with …; experiment: SPR; KD for FcγRIIaR divided by KD for FcγRIIb
[7] = target: T4, FcγRIIb extracellular domain with …; experiment: SPR; KD for FcγRIIaH divided by KD for FcγRIIb
[8] = target: T4, FcγRIIb extracellular domain with …; experiment: SPR (Biacore), antibody captured, FcγR as analyte
[9] = target: T5, FcγRIIa type R extracellular domain …; experiment: SPR (Biacore), antibody captured, FcγR as analyte
[10] = target: T6, FcγRIa extracellular domain with C-terminal His tag (human, UniProt P12314 16-292); experiment: SPR (Biacore), antibody captured, FcγR as analyte
T6 construct: also called FcgRIa; not shown: His tag attached to the C terminus
T6 sequence (P12314 16-292): as the sequence (P12314 16-292) above

T2 sequence (P08637 17-208 F176V): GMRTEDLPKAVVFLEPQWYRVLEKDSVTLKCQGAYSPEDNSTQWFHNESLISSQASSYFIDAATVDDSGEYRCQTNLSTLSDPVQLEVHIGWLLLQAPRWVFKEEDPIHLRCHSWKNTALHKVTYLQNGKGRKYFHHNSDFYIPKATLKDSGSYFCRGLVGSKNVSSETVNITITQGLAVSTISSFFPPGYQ

| Binder | binding result [1] | binding result [2] | binding result [3] | KD(IIb) of the parent polypeptide/KD(IIb) of the altered polypeptide [4] | KD(IIaR) of the parent polypeptide/KD(IIaR) of the altered polypeptide [5] | KD(IIaR)/KD(IIb) [6] | KD(IIaH)/KD(IIb) [7] | Kd [8] [nM] | Kd [9] [nM] | Kd [10] [nM] |
| --- | --- | --- | --- | --- | --- | --- | --- | --- | --- | --- |
| IL6R-BP471/IL6R-L (antibody, human IgG1, kappa) heavy: QVQLQESGPGLVKPSETLSLTCAVSGHSISHDHAWSWVRQPPGEGLEWIGFISYSGITNYNPSLQGRVTISRDNSKNTLYLQMNSLRAEDTAVYYCARSLARTTAMDYWGEGTLVTVSSASTKGPSVFPLAPSSKSTSGGTAALGCLVKDYFPEPVTVSWNSGALTSGVHTFPAVLQSSGLYSLSSVVTVPSSSLGTQTYICNVNHKPSNTKVDKKVEPKSCDKTHTCPPCPAPDLLGDDSVFLFPPKPKDTLMISRTPEVTCVVVDVSDEDGEVKFNWYVDGVEVHNAKTKPREEQDNSTYRVVSVLTVLHQDWLNGKEYKCKVSNKALPRSIEKTISKAKGQPREPQVYTLPPSRDELTKNQVSLTCLVKGFYPSDIAVEWESNGQPENNYKTTPPVLDSDGSFFLYSKLTVDKSRWQQGNVFSCSVMHEALHNHYTQESLSLSP light: not shown | binds | binds | binds | – | – | – | – | – | – | – |
| IL6R-BP567/IL6R-L (antibody, human IgG1, kappa, Anti-human IL-6R IgG1; alterations introduced into IL6R-B3 (G1d with K439E)) heavy: QVQLQESGPGLVKPSETLSLTCAVSGHSISHDHAWSWVRQPPGEGLEWIGFISYSGITNYNPSLQGRVTISRDNSKNTLYLQMNSLRAEDTAVYYCARSLARTTAMDYWGEGTLVTVSSASTKGPSVFPLAPSSKSTSGGTAALGCLVKDYFPEPVTVSWNSGALTSGVHTFPAVLQSSGLYSLSSVVTVPSSSLGTQTYICNVNHKPSNTKVDKKVEPKSCDKTHTCPPCPAPDLLGGDSVFLFPPKPKDTLMISRTPEVTCVVIDVAEEDGEVKFNWYVDGVEVHNAKTKPREEQDNSTYRVVSVLTVLHQDWLNGKEYKCKVSNKALPAPIEKTISKAKGQPREPQVYTLPPSRDELTKNQVSLTCLVKGFYPSDIAVEWESNGQPENNYKTTPPVLDSDGSFFLYSKLTVDKSRWQQGNVFSCSVMHEALHNHYTQESLSLSP light: not shown | – | – | – | 225 | 1.2 | 64.4 | 1230 | 14 | 890 | 0.21 |
| IL6R-BP560/IL6R-L (antibody, human IgG1, kappa, Anti-human IL-6R IgG1; alterations introduced into IL6R-B3 (G1d with K439E)) heavy: QVQLQESGPGLVKPSETLSLTCAVSGHSISHDHAWSWVRQPPGEGLEWIGFISYSGITNYNPSLQGRVTISRDNSKNTLYLQMNSLRAEDTAVYYCARSLARTTAMDYWGEGTLVTVSSASTKGPSVFPLAPSSKSTSGGTAALGCLVKDYFPEPVTVSWNSGALTSGVHTFPAVLQSSGLYSLSSVVTVPSSSLGTQTYICNVNHKPSNTKVDKKVEPKSCDKTHTCPPCPAPELLGGDSVFLFPPKPKDTLMISRTPEVTCVVVDVGEEDGEVKFNWYVDGVEVHNAKTKPREEQDNSTYRVVSVLTVLHQDWLNGKEYKCKVSNKALPRPIEKTISKAKGQPREPQVYTLPPSRDELTKNQVSLTCLVKGFYPSDIAVEWESNGQPENNYKTTPPVLDSDGSFFLYSKLTVDKSRWQQGNVFSCSVMHEALHNHYTQESLSLSP light: not shown | – | – | – | 16.8 | 0.3 | 22.8 | 168 | 180 | 4200 | 5.6 |
| IL6R-BP562/IL6R-L (antibody, human IgG1, kappa, Anti-human IL-6R IgG1; alterations introduced into IL6R-B3 (G1d with K439E)) heavy: QVQLQESGPGLVKPSETLSLTCAVSGHSISHDHAWSWVRQPPGEGLEWIGFISYSGITNYNPSLQGRVTISRDNSKNTLYLQMNSLRAEDTAVYYCARSLARTTAMDYWGEGTLVTVSSASTKGPSVFPLAPSSKSTSGGTAALGCLVKDYFPEPVTVSWNSGALTSGVHTFPAVLQSSGLYSLSSVVTVPSSSLGTQTYICNVNHKPSNTKVDKKVEPKSCDKTHTCPPCPAPELLGDDSVFLFPPKPKDTLMISRTPEVTCVVVDVSDEDGDVKFNWYVDGVEVHNAKTKPREEQDNSTYRVVSVLTVLHQDWLNGKEYKCKVSNKALPRPIEKTISKAKGQPREPQVYTLPPSRDELTKNQVSLTCLVKGFYPSDIAVEWESNGQPENNYKTTPPVLDSDGSFFLYSKLTVDKSRWQQGNVFSCSVMHEALHNHYTQESLSLSP light: not shown | – | – | – | 131 | 1.6 | 29 | 466 | 24 | 680 | 25 |
| IL6R-BP564/IL6R-L (antibody, human IgG1, kappa, Anti-human IL-6R IgG1; alterations introduced into IL6R-B3 (G1d with K439E)) heavy: QVQLQESGPGLVKPSETLSLTCAVSGHSISHDHAWSWVRQPPGEGLEWIGFISYSGITNYNPSLQGRVTISRDNSKNTLYLQMNSLRAEDTAVYYCARSLARTTAMDYWGEGTLVTVSSASTKGPSVFPLAPSSKSTSGGTAALGCLVKDYFPEPVTVSWNSGALTSGVHTFPAVLQSSGLYSLSSVVTVPSSSLGTQTYICNVNHKPSNTKVDKKVEPKSCDKTHTCPPCPAPELLGDDSVFLFPPKPKDTLMISRTPEVTCVVVDVSEEDGDVKFNWYVDGVEVHNAKTKPREEQDNSTYRVVSVLTVLHQDWLNGKEYKCKVSNKALPRPIEKTISKAKGQPREPQVYTLPPSRDELTKNQVSLTCLVKGFYPSDIAVEWESNGQPENNYKTTPPVLDSDGSFFLYSKLTVDKSRWQQGNVFSCSVMHEALHNHYTQESLSLSP light: not shown | – | – | – | 141 | 1.9 | 26.2 | 454 | 22 | 580 | 31 |
| IL6R-BP561/IL6R-L (antibody, human IgG1, kappa, Anti-human IL-6R IgG1; alterations introduced into IL6R-B3 (G1d with K439E)) heavy: QVQLQESGPGLVKPSETLSLTCAVSGHSISHDHAWSWVRQPPGEGLEWIGFISYSGITNYNPSLQGRVTISRDNSKNTLYLQMNSLRAEDTAVYYCARSLARTTAMDYWGEGTLVTVSSASTKGPSVFPLAPSSKSTSGGTAALGCLVKDYFPEPVTVSWNSGALTSGVHTFPAVLQSSGLYSLSSVVTVPSSSLGTQTYICNVNHKPSNTKVDKKVEPKSCDKTHTCPPCPAPDLLGDDSVFLFPPKPKDTLMISRTPEVTCVVVDVSDEDGDVKFNWYVDGVEVHNAKTKPREEQDNSTYRVVSVLTVLHQDWLNGKEYKCKVSNKALPRPIEKTISKAKGQPREPQVYTLPPSRDELTKNQVSLTCLVKGFYPSDIAVEWESNGQPENNYKTTPPVLDSDGSFFLYSKLTVDKSRWQQGNVFSCSVMHEALHNHYTQESLSLSP light: not shown | – | – | – | – | – | – | – | 18 | 510 | 9.4 |
| IL6R-BP568/IL6R-L (antibody, human IgG1, kappa, Anti-human IL-6R IgG1; alterations introduced into IL6R-B3 (G1d with K439E)) heavy: QVQLQESGPGLVKPSETLSLTCAVSGHSISHDHAWSWVRQPPGEGLEWIGFISYSGITNYNPSLQGRVTISRDNSKNTLYLQMNSLRAEDTAVYYCARSLARTTAMDYWGEGTLVTVSSASTKGPSVFPLAPSSKSTSGGTAALGCLVKDYFPEPVTVSWNSGALTSGVHTFPAVLQSSGLYSLSSVVTVPSSSLGTQTYICNVNHKPSNTKVDKKVEPKSCDKTHTCPPCPAPDLLGGDSVFLFPPKPKDTLMISRTPEVTCVVIDVAEEDGEVKFNWYVDGVEVHNAKTKPREEQYNSTYRVVSVLTVLHQDWLNGKEYKCKVSNKALPAPIEKTISKAKGQPREPQVYTLPPSRDELTKNQVSLTCLVKGFYPSDIAVEWESNGQPENNYKTTPPVLDSDGSFFLYSKLTVDKSRWQQGNVFSCSVMHEALHNHYTQESLSLSP light: not shown | – | – | – | 211 | 1.6 | 46.1 | 748 | 15 | 680 | 0.19 |
